What all share (assay): ELISA; solid-phase binding assay: native (triple-helical) collagens coated at 200 μg/ml in PBS on Immulon 2HB plates overnight at 4 °C; DDR-Fc at 20 μg/ml (∼220 nM) or in a series of 0-60 μg/ml (0-667 nM) in PBS, 3 h at room temperature; anti-Fc detection, A450; apparent Kd from a one-site fit
In experiment [1] the target is SCl-DDR6 (bacterial collagen with six triplets of the human collagen III DDR-binding sequence) (Streptococcus pyogenes | human).
Experiment [2] addresses SCl-DDR4 (bacterial collagen with four triplets of the human collagen III DDR-binding sequence) (Streptococcus pyogenes | human).
Experiment [3] deals with T1, Collagen type III, pepsin-extracted from bovine skin (bovine, UniProt P04258 1-1049, 4-hydroxyproline in Yaa positions (positions not listed)).
T1 construct: bovine collagen alpha1(III) chain, pepsin-extracted from skin; Homotrimer of alpha1(III) chains; native triple helix unless denatured (90 °C, 30 min); also called Bovine Collage III; collagen III; source: pepsin-extracted from bovine skin (provided by Dr. John Ramshaw)
T1 sequence (looked up): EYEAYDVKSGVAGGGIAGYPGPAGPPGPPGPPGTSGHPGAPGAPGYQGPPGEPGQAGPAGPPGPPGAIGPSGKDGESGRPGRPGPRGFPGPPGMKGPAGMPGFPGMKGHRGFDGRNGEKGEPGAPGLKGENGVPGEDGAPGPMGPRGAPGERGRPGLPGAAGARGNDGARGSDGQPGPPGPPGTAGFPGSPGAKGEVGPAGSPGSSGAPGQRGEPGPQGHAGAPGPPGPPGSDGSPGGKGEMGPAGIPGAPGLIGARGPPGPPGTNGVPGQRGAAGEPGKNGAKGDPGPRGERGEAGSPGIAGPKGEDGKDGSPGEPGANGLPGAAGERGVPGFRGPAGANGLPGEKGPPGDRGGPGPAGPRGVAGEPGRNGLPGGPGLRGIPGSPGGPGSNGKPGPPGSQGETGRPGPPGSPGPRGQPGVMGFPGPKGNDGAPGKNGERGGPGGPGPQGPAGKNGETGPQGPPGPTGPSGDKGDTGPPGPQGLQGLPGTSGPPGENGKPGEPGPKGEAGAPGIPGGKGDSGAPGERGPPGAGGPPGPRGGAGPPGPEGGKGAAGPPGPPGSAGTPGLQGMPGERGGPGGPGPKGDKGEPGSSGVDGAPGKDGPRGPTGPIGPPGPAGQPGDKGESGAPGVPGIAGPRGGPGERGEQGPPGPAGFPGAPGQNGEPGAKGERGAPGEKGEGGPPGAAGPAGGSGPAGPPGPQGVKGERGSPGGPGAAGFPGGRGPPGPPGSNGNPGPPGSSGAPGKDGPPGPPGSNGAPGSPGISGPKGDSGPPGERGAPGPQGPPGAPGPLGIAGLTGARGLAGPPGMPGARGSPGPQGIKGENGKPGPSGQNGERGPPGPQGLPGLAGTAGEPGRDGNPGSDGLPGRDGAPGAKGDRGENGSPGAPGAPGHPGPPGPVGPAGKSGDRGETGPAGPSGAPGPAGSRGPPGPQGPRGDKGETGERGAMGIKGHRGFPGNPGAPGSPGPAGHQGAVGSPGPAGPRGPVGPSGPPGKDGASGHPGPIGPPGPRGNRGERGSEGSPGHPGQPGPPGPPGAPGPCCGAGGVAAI
To be noted: both partners purified.

As for “DDR1-Fc (recombinant human discoidin domain receptor 1 ectodomain, Fc-tagged) (from UniProt Q08345 21-417) (Fc fusion)”, the Kd in experiment [1] amounted to 66 nM; in experiment [2], 53.3 nM.

B1: DDR2-Fc (recombinant human discoidin domain receptor 2 ectodomain, Fc-tagged) (Fc fusion, UniProt Q16832 22-399, looked up)
chain: KAQVNPAICRYPLGMSGGQIPDEDITASSQWSESTAAKYGRLDSEEGDGAWCPEIPVEPDDLKEFLQIDLHTLHFITLVGTQGRHAGGHGIEFAPMYKINYSRDGTRWISWRNRHGKQVLDGNSNPYDIFLKDLEPPIVARFVRFIPVTDHSMNVCMRVELYGCVWLDGLVSYNAPAGQQFVLPGGSIIYLNDSVYDGAVGYSMTEGLGQLTDGVSGLDDFTQTHEYHVWPGYDYVGWRNESATNGYIEIMFEFDRIRNFTTMKVHCNNMFAKGVKIFKEVQCYFRSEASEWEPNAISFPLVLDDVNPSARFVTVPLHHRMASAIKCQYHFADTWMMFSEITFQSDAAMYNNSEALPTSPMAPTTYDPMLKVDDSNTR
notes: human discoidin domain receptor 2, ectodomain; In the functional rows the receptor was full-length DDR2 in HEK293 cells; also called DDR2 ectodomain; source: HEK293-EBNA, episomally transfected, purified (rProtein A)
With B1, the Kd is 69.7 nM in experiment [1], 81.2 nM in experiment [2] and 20 ± 1.9 nM in experiment [3].

B2: DDR1-Fc (recombinant human discoidin domain receptor 1 ectodomain, Fc-tagged) (Fc fusion, UniProt Q08345 21-417, looked up)
chain: DMKGHFDPAKCRYALGMQDRTIPDSDISASSSWSDSTAARHSRLESSDGDGAWCPAGSVFPKEEEYLQVDLQRLHLVALVGTQGRHAGGLGKEFSRSYRLRYSRDGRRWMGWKDRWGQEVISGNEDPEGVVLKDLGPPMVARLVRFYPRADRVMSVCLRVELYGCLWRDGLLSYTAPVGQTMYLSEAVYLNDSTYDGHTVGGLQYGGLGQLADGVVGLDDFRKSQELRVWPGYDYVGWSNHSFSSGYVEMEFEFDRLRAFQAMQVHCNNMHTLGARLPGGVECRFRRGPAMAWEGEPMRHNLGGNLGDPRARAVSVPLGGRVARFLQCRFLFAGPWLLFSEISFISDVVNNSSPALGGTFPPAPWWPPGPPPTNFSSLELEPRGQQPVAKAEGSPTA
notes: human discoidin domain receptor 1, ectodomain; IgG1 Fc, R&D Systems) stood in which experiment; In the functional rows the receptor was full-length DDR1a in HEK293 cells or endogenous DDR1 on human megakaryocytes; also called DDR1 ectodomain; source: HEK293-EBNA, episomally transfected, purified (rProtein A) (IgG2 Fc); for some experiments bought: R&D Systems (IgG1 Fc)
In the case of B2, the Kd in experiment [3] is 15.2 ± 0.9 nM.

The record behind these values is publication PMC4813464, “Recombinant Collagen Engineered to Bind to Discoidin Domain Receptor Functions as a Receptor Inhibitor*” (The Journal of Biological Chemistry, 2015).
